Results reported in the supplement of paper PMC10201428.
± gives the standard deviation of the averaged measurements.

The sequences below were run on VchCAST RNA-guided transposition machinery (E. coli BL21(DE3) host, lacZ target) (assay: relative integration efficiency (T-RL orientation) vs wild-type transposon end (log2 (normalized fold change)); transposon end mutated: right end (5 bp flank + 75 bp right end); higher = more efficient transposition).
Summary of the method: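 Co-transformation of E. coli BL21(DE3) combined a pUC57 mini-transposon donor, holding barcoded pools of 1549 left-end or 1849 right-end variants, with a T7-driven plasmid encoding a CRISPR array, tniQ-cas8-cas7-cas6 and tnsA-tnsB-tnsC. After plating with 0.1 mM IPTG at 37°C for 18 h, input plasmids and genomic integration junctions were PCR-amplified and Illumina-sequenced across two biological output replicates, with four reference barcodes. Relative integration efficiency is the normalised, log-transformed output/input barcode fold change.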

| Sequence | relative integration efficiency (log2) |
| --- | --- |
| ACATTTGTTGATACAACCATAAAATGATAATTACACCCATAAAGGGATAATTATCACACCCATAAATTGATATTGCCTCTGATCATAGTCAGACCAACATTGCTACGACCCGTATTCGCACCGACAC | -0.447 ± 0.064 |
| ACATTTGTTGATACAACCATAAAAGGATCATTACCCCCATAAATTGATAATTATCCCACCCAATTTAACTATAACGCTCTGATCATAGTCAGACCAACATTGCTACGACCCGTATTCGCACCGACAC | -2.19 ± 0.29 |
| ACATTTGTTGATCCAACCATAAAATGATAATTACACCCATAAATTCATAATTATCACACCCAATTTAACTATAACGCTCTGATCATAGTCAGACCAACATTGCTACGACCCGTATTCGCACCGACAC | -2.07 ± 0.2 |
| ACATTTGTTGATACCACCATAAAATGATAATTCCACCCCTACATTGATAATTATCACACCCAATTTAACTATAACGCTCTGATCATAGTCAGACCAACATTGCTACGACCCGTATTCGCACCGACAC | -3.78 ± 0.24 |
| ACATTTGTTGATACAACCATAAAATGATAATTACACCCATAAATTGATAATTATCACACCCATAAATTGATATTGCCCAACCATAAAATGATAATTATCTGATCATAGTCAGACCAAGCACCGACAC | -0.0286 ± 0.28 |
| ACATTTGTTGATACAACCATTTAATGATAATAACACCCATAAAATGATAATTATCACACCCAATTTAACTATAACGCTCTGATCATAGTCAGACCAACATTGCTACGACCCGTATTCGCACCGACAC | -1.14 ± 0.26 |
| ACATTTGTTGATACAACCATAAAATGATAATTACACCCATAAATTGATAATTATCACACCCAGCCCGGTCGCGGTAAGAGGATCATAGTCAGACCAACATTGCTACGACCCGTATTCGCACCGACAC | -0.344 ± 0.16 |
| ACATTTGTTGATACCACCATCAAATGATAATTACACCCATACATTGATAATTATCACACCCAATTTAACTATAACGCTCTGATCATAGTCAGACCAACATTGCTACGACCCGTATTCGCACCGACAC | -3.87 ± 0.1 |
| ACATTTGTTGATACAACCATAAAACGATAATTACACCCATAAATGGATCATTATCACACCCAATTTAACTATAACGCTCTGATCATAGTCAGACCAACATTGCTACGACCCGTATTCGCACCGACAC | -1.78 ± 0.29 |
| ACATTGGTTGATACAACCATAAAATGATAATTACACCCATAAATGGATAATTATCACACCCAATTTAACTATAACGCTCTGATCATAGTCAGACCAACATTGCTACGACCCGTATTCGCACCGACAC | -7.99 ± 0.69 |
| ACATTTGTTGATACAACCATAAAATGATAAGGCCACCCATAAATTGATAAGGCTCACACCCATAAATTGATATGTACTCTGATCATAGTCAGACCAACATTGCTACGACCCGTATTCGCACCGACAC | -1.42 ± 0.28 |
| ACATTTGTTGATACAACCATAAAATGATAATTACACCCATAAATTGATAATTATCACACCCATAAATTGATATTGCCTAGGATCATAGTCAGACCAACATTGCTACGACCCGTATTCGCACCGACAC | 0.0464 ± 0.076 |
| ACATTTGTTGATACAACCATAAAATGATAATTACACCCATAAATTGATAATTATCACACCCATAAATTGATATTGCCTCTGATCATAGTCAATGTGATAACAATCACAGAAGACCAAGCACCGACAC | 0.245 ± 0.16 |
| ACATTTGTTGATACAACCATAAAATGATAATTACACCCATAAATTGATAATTATCACACCCATAAATTGATATTGCCTCTGATCATAAATATATAAATTAATTATTAAATTAGTCAGGCACCGACAC | 1.34 ± 0.21 |
| ACATTTGTTGATACAACCATAAAATGATAATTACACCCCGCCATTGATAATTATCACACCCATAAATTGATATTGCCTCTGATCATAGTCAGACCAACATTGCTACGACCCGTATTCGCACCGACAC | -3.5 ± 0.22 |
| ACATTTGTTGATACAACCATAAAATGATAATTACACCCATAAATTGATAATTATCACACCCATAAATTGATATTGCCTCTACATGAATTCAAAGTTATGTAATATAGTACTATGTACGCACCGACAC | -0.373 ± 0.31 |
| ACATTTGTTGATACAACCATAAAATGATACGGCACAAACGCCCGGTCGCCGGCGACACAAACGCCCGGTCGCGGTAAGAGGATCATAGTCAGACCAACATTGCTACGACCCGTATTCGCACCGACAC | -2.2 ± 0.14 |
| ACATTTGTTGATACAACCATAAAATGATAATTACACCCATAAATTGATAATTATCACACCCATAAATTGATATTGCCTCTGATCGTTTTAAGGATGACTTCAGTCGCGCCGTACTTCGCACCGACAC | -0.207 ± 0.2 |
| ACATTTGTTGATACAACCATAAAGTGATATTTACAACCATATATTGATATCTCTCACAACCATAAGTTGATATTTTCTCTGATCATAGTCAGACCAACATTGCTACGACCCGTATTCGCACCGACAC | -0.0164 ± 0.24 |
| ACATTTGTTGATACAACCATAAAATGATAATTACACCCATAAATCTGAAATTATCACACCCATAAATTGATATTGCCTCTGATCATAGTCAGACCAACATTGCTACGACCCGTATTCGCACCGACAC | -0.888 ± 0.057 |
| ACATTTGTTGATACAACCATATATTGATATCTCCAACCATAAAATGATAATTATCACAACCATAAAGTGATATTTACTCTGATCATAGTCAGACCAACATTGCTACGACCCGTATTCGCACCGACAC | -0.115 ± 0.074 |
| ACATTTGTTGATACAACCATAAAATGTAAATTACACCCATAAATTGATAATTATCACACCCATAAATTGATATTGCCTCTGATCATAGTCAGACCAACATTGCTACGACCCGTATTCGCACCGACAC | -0.732 ± 0.084 |
| ACATTTGTTGATACAACCATAAAATGATAATTAGTGGCATAAATTGATAATTATCACACCCATAAATTGATATTGCCTCTGATCATAGTCAGACCAACATTGCTACGACCCGTATTCGCACCGACAC | -1.91 ± 0.16 |
| ACATTTGTTGATAGAACCATATAATGATAATAACACCCATAAAATGATAATTATCACACCCAATTTAACTATAACGCTCTGATCATAGTCAGACCAACATTGCTACGACCCGTATTCGCACCGACAC | -1.72 ± 0.33 |
| ACATTTGTTGATACAACCATAAAATGATAATTACACCCATAAATTGATCCGGCGACACAAACGCCCGGTCGCGGTAAGAGGATCATAGTCAGACCAACATTGCTACGACCCGTATTCGCACCGACAC | -0.942 ± 0.11 |
